Molecular target: the molecule itself
Assay: SEC

B1: GIRK2 R92F channel (G protein-gated inwardly rectifying potassium channel 2, R92F substitution) (natural protein, mouse, UniProt P48542 1-425, looked up)
chain: MTMAKLTESMTNVLEGDSMDQDVESPVAIHQPKLPKQARDDLPRHISRDRTKRKIQRYVRKDGKCNVHHGNVRETYRYLTDIFTTLVDLKWFFNLLIFVMVYTVTWLFFGMIWWLIAYIRGDMDHIEDPSWTPCVTNLNGFVSAFLFSIETETTIGYGYRVITDKCPEGIILLLIQSVLGSIVNAFMVGCMFVKISQPKKRAETLVFSTHAVISMRDGKLCLMFRVGDLRNSHIVEASIRAKLIKSKQTSEGEFIPLNQSDINVGYYTGDDRLFLVSPLIISHEINQQSPFWEISKAQLPKEELEIVVILEGIVEATGMTCQARSSYITSEILWGYRFTPVLTMEDGFYEVDYNSFHETYETSTPSLSAKELAELANRAEVPLSWSVSSKLNQHAELETEEEEKNPEELTERNGDVANLENESKV
stoichiometry N: 4

Reference: doi:10.1101/2025.02.14.637896 (bioRxiv, 2025)
